Laboratory results from patent publication US20190185560A1 (Novo Nordisk, published 2019).

T1: cynomolgus TREM-1-Fc (cynomolgus monkey)
T1 construct: also called cTREM-1
T1 chain: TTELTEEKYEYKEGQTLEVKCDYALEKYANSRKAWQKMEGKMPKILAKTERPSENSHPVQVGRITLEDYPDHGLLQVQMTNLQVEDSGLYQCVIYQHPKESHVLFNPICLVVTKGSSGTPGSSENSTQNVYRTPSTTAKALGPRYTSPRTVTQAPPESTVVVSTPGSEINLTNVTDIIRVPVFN

T2: cynomolgus TREM-1 on cells (TE426.27 reporter cell line) (cynomolgus monkey)
T2 chain: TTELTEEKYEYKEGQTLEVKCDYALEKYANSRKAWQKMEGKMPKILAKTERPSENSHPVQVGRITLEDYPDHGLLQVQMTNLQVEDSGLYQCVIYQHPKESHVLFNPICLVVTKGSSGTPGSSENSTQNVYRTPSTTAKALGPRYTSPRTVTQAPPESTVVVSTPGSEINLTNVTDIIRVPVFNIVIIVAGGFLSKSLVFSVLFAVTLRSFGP


Columns and labels:
[1] = molecular target: T1, cynomolgus TREM-1-Fc; assay: SPR (ProteOn), antibody captured via anti-Fc, TREM-1-Fc as analyte, 1:1 Langmuir fit, 25 C
Procedure: Binding studies were performed on a ProteOn Analyzer (BioRad) that measures molecular interactions in real time through surface plasmon resonance. Experiments were run at 25° C. and the samples were stored at 15° C. in the sample compartment. The signal (RU, response units) reported by the ProteOn is directly correlated to the mass on the individual sensor chip surfaces in the six parallel flow cells. Anti-human Fc monoclonal or anti-murine Fc polyclonal antibody from Biacore human or mouse Fc capture kits were immobilized in horizontal direction onto flow cells of a GLM sensor chip according to the manufacturer's instructions. The final immobilization level of capture antibody was approximately 2600-6000 RU in each experiment. The capture of purified monoclonal mouse or recombinantly expressed anti-hTREM-1 antibodies was conducted by diluting the antibodies to 5-10 nM into running buffer (10 mM Hepes 0.15 M NaCl, 5 mM EDTA, 0.05% surfactant P20, pH 7.4) followed by injection in vertical direction at 30 μL/min for 60 sec, creating reference interspots adjacent to all flow cells with only anti-Fc antibody immobilized. […] Binding of hTREM-1 or cTREM-1 proteins was conducted by injecting analyte (antigen) over all flow cells in horizontal direction to allow for comparative analyses of binding to different captured anti-TREM-1 antibodies relative to binding to the reference interspot. hTREM-1 or cTREM-1 proteins were diluted serially 1:3 to 1.2-100 nM or into running buffer, injected at 100 μL/min for 250 s and allowed to dissociate for 600 s. The GLM surface was regenerated after each injection cycle of analyte via two 18 s injections of 10 mM Glycine, pH 1.7 and 50 mM NaOH at 100 μL/min. This regeneration step removed the anti-TREM-1 antibody and any bound TREM-1 protein from the immobilized capture antibody surface and allowed for the subsequent binding of the next interaction sample pair.

[2] = molecular target: T2, cynomolgus TREM-1 on cells (TE426.27 …); assay: cell-based or functional assay
[3] = molecular target: the molecule itself; assay: X-ray crystal structure of the Fab region of mAb 0170 (self-interaction in the crystal)
Procedure: The crystal was transferred to a drop consisting of 2 μL 35% (w/v) PEG3350, 200 mM K₂HPO₄ and mounted in a 0.2 mm diameter litholoop (Molecular Dimensions Limited) and flash-cooled in liquid nitrogen.
Data were collected to a resolution of 2.40 Å. […] The search models were structures of the heavy chain from the pdb entry 1AD0.pdb (85% identity) and the light chain from the pdb entry 2QRG (94% identity).

Kd [1] [nM] | IC50: inhibition of luminescence of TE426.27 cynomolgus TREM-1 reporter cells stimulated with PGN and recombinant PGLYRP1 [2] [nM] | Binder | binding result [3]
2 | 6 | mAb 0170 (humanised TREM-1 antibody, mAb 0170 of WO2013/120553) (antibody, V domains shown, also called mAb 170) VH: EVQLVESGGGLVQPGGSLKLSCAASGFTFSTYAMHWVRQASGKGLEWVGRIRTKSSNYATYYAASVKGRFTISRDDSKNTAYLQMNSLKTEDTAVYYCTRDMGIRRQFAYWGQGTLVTVSS VL: DIVLTQSPDSLAVSLGERATINCRASESVDTFDYSFLHWYQQKPGQPPKLLIYRASNLESGVPDRFSGSGSGTDFTLTISSLQAEDVAVYYCQQSNEDPYTFGQGTKLEIKR | 
 |  | Fab region of mAb 0170 (Fab, V domains shown, Crystallised alone; packs as Fab-Fab dimers; also called Fab 0170; mAb 170 Fab region) VH: EVQLVESGGGLVQPGGSLKLSCAASGFTFSTYAMHWVRQASGKGLEWVGRIRTKSSNYATYYAASVKGRFTISRDDSKNTAYLQMNSLKTEDTAVYYCTRDMGIRRQFAYWGQGTLVTVSS VL: DIVLTQSPDSLAVSLGERATINCRASESVDTFDYSFLHWYQQKPGQPPKLLIYRASNLESGVPDRFSGSGSGTDFTLTISSLQAEDVAVYYCQQSNEDPYTFGQGTKLEIKR | binds
1 |  | mAb 0325 (mAb 0170 variant, heavy chain N57S) (antibody, human IgG4 S228P, kappa, V domains shown) VH: EVQLVESGGGLVQPGGSLKLSCAASGFTFSTYAMHWVRQASGKGLEWVGRIRTKSSSYATYYAASVKGRFTISRDDSKNTAYLQMNSLKTEDTAVYYCTRDMGIRRQFAYWGQGTLVTVSS VL: DIVLTQSPDSLAVSLGERATINCRASESVDTFDYSFLHWYQQKPGQPPKLLIYRASNLESGVPDRFSGSGSGTDFTLTISSLQAEDVAVYYCQQSNEDPYTFGQGTKLEIKR | 
3 |  | mAb 0320 (mAb 0170 variant, light chain E97Q) (antibody, human IgG4 S228P, kappa, V domains shown, Charge patch mutation) VH: EVQLVESGGGLVQPGGSLKLSCAASGFTFSTYAMHWVRQASGKGLEWVGRIRTKSSNYATYYAASVKGRFTISRDDSKNTAYLQMNSLKTEDTAVYYCTRDMGIRRQFAYWGQGTLVTVSS VL: DIVLTQSPDSLAVSLGERATINCRASESVDTFDYSFLHWYQQKPGQPPKLLIYRASNLESGVPDRFSGSGSGTDFTLTISSLQAEDVAVYYCQQSNQDPYTFGQGTKLEIKR | 
4 |  | mAb 0324 (mAb 0170 variant, heavy chain A59Y) (antibody, human IgG4 S228P, kappa, V domains shown) VH: EVQLVESGGGLVQPGGSLKLSCAASGFTFSTYAMHWVRQASGKGLEWVGRIRTKSSNYYTYYAASVKGRFTISRDDSKNTAYLQMNSLKTEDTAVYYCTRDMGIRRQFAYWGQGTLVTVSS VL: DIVLTQSPDSLAVSLGERATINCRASESVDTFDYSFLHWYQQKPGQPPKLLIYRASNLESGVPDRFSGSGSGTDFTLTISSLQAEDVAVYYCQQSNEDPYTFGQGTKLEIKR | 
0.1 | 10.7 | mAb 0330 (mAb 0170 variant, light chain F32A, E27Q, E97Q) (antibody, human IgG4 S228P, kappa, V domains shown) VH: EVQLVESGGGLVQPGGSLKLSCAASGFTFSTYAMHWVRQASGKGLEWVGRIRTKSSNYATYYAASVKGRFTISRDDSKNTAYLQMNSLKTEDTAVYYCTRDMGIRRQFAYWGQGTLVTVSS VL: DIVLTQSPDSLAVSLGERATINCRASQSVDTADYSFLHWYQQKPGQPPKLLIYRASNLESGVPDRFSGSGSGTDFTLTISSLQAEDVAVYYCQQSNQDPYTFGQGTKLEIKR | 
2 | 5.6 | mAb 0318 (mAb 0170 variant, light chain E27Q, E97Q) (antibody, human IgG4 S228P, kappa, V domains shown, Charge patch mutations) VH: EVQLVESGGGLVQPGGSLKLSCAASGFTFSTYAMHWVRQASGKGLEWVGRIRTKSSNYATYYAASVKGRFTISRDDSKNTAYLQMNSLKTEDTAVYYCTRDMGIRRQFAYWGQGTLVTVSS VL: DIVLTQSPDSLAVSLGERATINCRASQSVDTFDYSFLHWYQQKPGQPPKLLIYRASNLESGVPDRFSGSGSGTDFTLTISSLQAEDVAVYYCQQSNQDPYTFGQGTKLEIKR | 
0.6 |  | mAb 0323 (mAb 0170 variant, light chain F32S) (antibody, human IgG4 S228P, kappa, V domains shown) VH: EVQLVESGGGLVQPGGSLKLSCAASGFTFSTYAMHWVRQASGKGLEWVGRIRTKSSNYATYYAASVKGRFTISRDDSKNTAYLQMNSLKTEDTAVYYCTRDMGIRRQFAYWGQGTLVTVSS VL: DIVLTQSPDSLAVSLGERATINCRASESVDTSDYSFLHWYQQKPGQPPKLLIYRASNLESGVPDRFSGSGSGTDFTLTISSLQAEDVAVYYCQQSNEDPYTFGQGTKLEIKR | 
3 | 9.5 | mAb 0317 (mAb 0170 variant, light chain E27Q, E97S) (antibody, human IgG4 S228P, kappa, V domains shown, Charge patch mutations) VH: EVQLVESGGGLVQPGGSLKLSCAASGFTFSTYAMHWVRQASGKGLEWVGRIRTKSSNYATYYAASVKGRFTISRDDSKNTAYLQMNSLKTEDTAVYYCTRDMGIRRQFAYWGQGTLVTVSS VL: DIVLTQSPDSLAVSLGERATINCRASQSVDTFDYSFLHWYQQKPGQPPKLLIYRASNLESGVPDRFSGSGSGTDFTLTISSLQAEDVAVYYCQQSNSDPYTFGQGTKLEIKR | 
0.3 |  | mAb 0333 (mAb 0170 variant, heavy chain A59Y, light chain F32A, E27Q, E97Q) (antibody, human IgG4 S228P, kappa, V domains shown) VH: EVQLVESGGGLVQPGGSLKLSCAASGFTFSTYAMHWVRQASGKGLEWVGRIRTKSSNYYTYYAASVKGRFTISRDDSKNTAYLQMNSLKTEDTAVYYCTRDMGIRRQFAYWGQGTLVTVSS VL: DIVLTQSPDSLAVSLGERATINCRASQSVDTADYSFLHWYQQKPGQPPKLLIYRASNLESGVPDRFSGSGSGTDFTLTISSLQAEDVAVYYCQQSNQDPYTFGQGTKLEIKR | 
2 |  | mAb 0321 (mAb 0170 variant, light chain E27Q) (antibody, human IgG4 S228P, kappa, V domains shown, Charge patch mutation) VH: EVQLVESGGGLVQPGGSLKLSCAASGFTFSTYAMHWVRQASGKGLEWVGRIRTKSSNYATYYAASVKGRFTISRDDSKNTAYLQMNSLKTEDTAVYYCTRDMGIRRQFAYWGQGTLVTVSS VL: DIVLTQSPDSLAVSLGERATINCRASQSVDTFDYSFLHWYQQKPGQPPKLLIYRASNLESGVPDRFSGSGSGTDFTLTISSLQAEDVAVYYCQQSNEDPYTFGQGTKLEIKR | 
2 | 17.7 | mAb 0319 (mAb 0170 variant, light chain E97S) (antibody, human IgG4 S228P, kappa, V domains shown, Charge patch mutation) VH: EVQLVESGGGLVQPGGSLKLSCAASGFTFSTYAMHWVRQASGKGLEWVGRIRTKSSNYATYYAASVKGRFTISRDDSKNTAYLQMNSLKTEDTAVYYCTRDMGIRRQFAYWGQGTLVTVSS VL: DIVLTQSPDSLAVSLGERATINCRASESVDTFDYSFLHWYQQKPGQPPKLLIYRASNLESGVPDRFSGSGSGTDFTLTISSLQAEDVAVYYCQQSNSDPYTFGQGTKLEIKR | 
4 |  | mAb 0332 (mAb 0170 variant, heavy chain A59Y, light chain E27Q, E97Q) (antibody, human IgG4 S228P, kappa, V domains shown) VH: EVQLVESGGGLVQPGGSLKLSCAASGFTFSTYAMHWVRQASGKGLEWVGRIRTKSSNYYTYYAASVKGRFTISRDDSKNTAYLQMNSLKTEDTAVYYCTRDMGIRRQFAYWGQGTLVTVSS VL: DIVLTQSPDSLAVSLGERATINCRASQSVDTFDYSFLHWYQQKPGQPPKLLIYRASNLESGVPDRFSGSGSGTDFTLTISSLQAEDVAVYYCQQSNQDPYTFGQGTKLEIKR | 
0.1 | 5.9 | mAb 0322 (mAb 0170 variant, light chain F32A) (antibody, human IgG4 S228P, kappa, V domains shown) VH: EVQLVESGGGLVQPGGSLKLSCAASGFTFSTYAMHWVRQASGKGLEWVGRIRTKSSNYATYYAASVKGRFTISRDDSKNTAYLQMNSLKTEDTAVYYCTRDMGIRRQFAYWGQGTLVTVSS VL: DIVLTQSPDSLAVSLGERATINCRASESVDTADYSFLHWYQQKPGQPPKLLIYRASNLESGVPDRFSGSGSGTDFTLTISSLQAEDVAVYYCQQSNEDPYTFGQGTKLEIKR | 
